Data published in patent US20130323248A1 (published 2013).

B1: anti-DLL-4 antibody C3 (antibody, V domains shown)
VH: QVQLVQSGSELKKPGASVKVSCKASGYTFTSYYMHWVRQVPGQGLEWMGIINPSGGSTSYAQKFQGRVTMTRDTSTSTVYMELSSLRSEDTAVYYCATDYYDSSGYVDFDYWGQGTLVTVSS
VL: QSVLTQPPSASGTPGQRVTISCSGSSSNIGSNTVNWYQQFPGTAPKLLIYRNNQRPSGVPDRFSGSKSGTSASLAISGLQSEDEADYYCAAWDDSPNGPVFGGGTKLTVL
B2: anti-DLL-4 antibody G6 (antibody, V domains shown)
VH: EVQLVESGGSLVQPGGSLRLSCAASGFTFSNGWMTWLRQAPGKGLEWVATIKPDGSDTAYVESVKGRFTISRDNAKNLLYLQMDSLRGDDTAVYFCARDLAYNAFDIWGQGTMVTVSS
VL: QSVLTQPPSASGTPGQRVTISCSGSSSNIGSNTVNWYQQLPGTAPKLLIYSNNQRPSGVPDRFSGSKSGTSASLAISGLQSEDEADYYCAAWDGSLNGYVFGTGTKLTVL
B3: anti-DLL-4 antibody C10 (antibody, V domains shown)
VH: QVQLVESGAEVKKPGASVKVSCKASGYTFTSYYMHWVRQAPQGLEWMGIINPSGGSTSYAQKFQGRVTMTRDTSTNTVYMELSSLRSEDTAVYYCARDVWGGYFDYWGQGTLVTVSS
VL: QSVLTQPASVSGSPGQSITISCTGTSSDVGGYNYVSWYQQHPGKAPKLMIYDVTNRPSGVSNRFSGSKSGNTASLTISGLQAEDEADYYCSSYTSSSTVIFGGGTKLTVL

Target: T1, recombinant human DLL4 (rhDLL4) (human, UniProt Q9NR61 27-524)
Assay: Biacore SPR

| Ka | Binder |
| --- | --- |
| 1.13e+09 M⁻¹ | B1 |
| 8.72e+08 M⁻¹ | B2 |
| 8.49e+08 M⁻¹ | B3 |

Target: T2, human DLL-4 expressed on the surface of CHO-K1 cells (CHO-DLL-4 cells) (human, UniProt Q9NR61 27-685)
Assay: flow cytometry blocking of soluble Notch-1 binding

| IC50 | Binder |
| --- | --- |
| 0.364 nM | B1 |
| 0.286 nM | B2 |
| 0.676 nM | B3 |

Target: T2, human DLL-4 expressed on the surface of …
Assay: flow cytometry

| EC50 | Binder |
| --- | --- |
| 0.107 nM | B1 |
| 0.305 nM | B2 |
| 0.216 nM | B3 |

Target: T1, recombinant human DLL4 (rhDLL4)
Assay: Biacore SPR
Remark: another data set of the same source

| Kd | Binder |
| --- | --- |
| 0.884 nM | B1 |
| 1.15 nM | B2 |
| 1.18 nM | B3 |
